# Experimental data as given in the Human Domainome abundance scans (Beltran et al. 2025).
# ± gives the uncertainty stated by the source.
# B1: Apoptosis-associated speck-like protein containing a CARD, residues 114 to 194; numbered along this chain, Q9ULZ3 (parent)
# chain: FIDQHRAALIARVTNVEWLLDALYGKVLTDEQYQAVRAEPTNPSKMRKLFSFTPAWNWTCKDLLLQALRESQSYLVEDLER
# Variants of: B1
# Experiment: abundance fitness (aPCA) (normalised: wild type 0, dead -1); higher = more abundant; growth selection in yeast, the domain comes from the species named
# Conditions: Homo sapiens
row,Variant,abundance fitness
1,FIDQHRAALIARVTNVEWLLMALYGKVLTDEQYQAVRAEPTNPSKMRKLFSFTPAWNWTCKDLLLQALRESQSYLVEDLER [D21M],-0.292 ± 0.092
2,FIDQHRAALIARVTNVEWLLAALYGKVLTDEQYQAVRAEPTNPSKMRKLFSFTPAWNWTCKDLLLQALRESQSYLVEDLER [D21A],-0.477 ± 0.052
3,FIDQHRAALIARVTNVEWLLDALYGKVLTDEQYQAVRAEPTNPSKMRKLSSFTPAWNWTCKDLLLQALRESQSYLVEDLER [F50S],-0.822 ± 0.1
4,FIDQHRAALIARVTNVEWLLDALYGKKLTDEQYQAVRAEPTNPSKMRKLFSFTPAWNWTCKDLLLQALRESQSYLVEDLER [V27K],-1.09 ± 0.3
5,FIDQHRAALIARVTNVEWLLDALYGKVLTDEQYQAVRAEPTNASKMRKLFSFTPAWNWTCKDLLLQALRESQSYLVEDLER [P43A],-0.045 ± 0.054
6,FIDQHRAALIARVYNVEWLLDALYGKVLTDEQYQAVRAEPTNPSKMRKLFSFTPAWNWTCKDLLLQALRESQSYLVEDLER [T14Y],-0.54 ± 0.17
7,FIDQHRAALIARVCNVEWLLDALYGKVLTDEQYQAVRAEPTNPSKMRKLFSFTPAWNWTCKDLLLQALRESQSYLVEDLER [T14C],-0.656 ± 0.18
8,FIDQHRAALIARVTNVEWLLDALYGKVLTDEQWQAVRAEPTNPSKMRKLFSFTPAWNWTCKDLLLQALRESQSYLVEDLER [Y33W],-0.524 ± 0.11
9,FIDQHRAALIARVTNVEWLLDALYGKVLTDEQSQAVRAEPTNPSKMRKLFSFTPAWNWTCKDLLLQALRESQSYLVEDLER [Y33S],-0.376 ± 0.053
10,FIDQHRAALIARVTNVEWLLDALYGKVLTDEQYQAVRAEPLNPSKMRKLFSFTPAWNWTCKDLLLQALRESQSYLVEDLER [T41L],-0.834 ± 0.11
11,FIDQHRAALIARVTNVEWLLDALYGKVLTDEQYQAVRAEPTNPSKMRKLFSFTPAWNWTCKDLLLQALRESQSYLVYDLER [E77Y],-0.491 ± 0.14
12,FIDQHRAALIARVTNVEWLLDALYGKVLTDEQYQAVRAEPTNPSKMRKLFYFTPAWNWTCKDLLLQALRESQSYLVEDLER [S51Y],-0.843 ± 0.2
13,FIDQHRAALIARVTNVEWLLDALYGKVLTDEQYQAVRAEPTNPSKMRKLFSFTPAWNITCKDLLLQALRESQSYLVEDLER [W58I],-0.217 ± 0.24
14,FIDQHRAALIARVTNVEWLLDALYGKVLTDEQYQAVRAEPTNPSKMFKLFSFTPAWNWTCKDLLLQALRESQSYLVEDLER [R47F],-0.786 ± 0.18
15,FIDQHRAALIARVTNVEWLLDALYGKVLTDEQYQAVRAEPTNPSKMPKLFSFTPAWNWTCKDLLLQALRESQSYLVEDLER [R47P],-0.814 ± 0.12
16,FIDQHRAALIARVTNVEWLLDALYGKVLTDEQYQAVRAEPTNPSKMRKLFSCTPAWNWTCKDLLLQALRESQSYLVEDLER [F52C],-0.966 ± 0.18
17,FIDQHRAALIARVTNVEWLLDAIYGKVLTDEQYQAVRAEPTNPSKMRKLFSFTPAWNWTCKDLLLQALRESQSYLVEDLER [L23I],-0.564 ± 0.29

row,Variant,abundance fitness
1,FIDQHRAALIARVTNVEWLLDALYGKVLTDEQYQAVRAEPTNPSKMRKLFSFTPAWNWTCKDLLLQQLRESQSYLVEDLER [A67Q],-0.711 ± 0.14
2,FIDQHRAALIARVTNVEWLLDALYGKVLTDEQYQACRAEPTNPSKMRKLFSFTPAWNWTCKDLLLQALRESQSYLVEDLER [V36C],0.04 ± 0.069
3,FIDQHRAALIARVTNVEWLFDALYGKVLTDEQYQAVRAEPTNPSKMRKLFSFTPAWNWTCKDLLLQALRESQSYLVEDLER [L20F],-0.621 ± 0.23
4,FIDQHRAALIARVTNVEWLLDALYGKVLTDEQYQAVRAEPTNPSKMRKLFSFTPAWNWTCKDLLLQALRCSQSYLVEDLER [E70C],-0.202 ± 0.084
5,FIDQHRAALIARVTNVEWLLDALYGKVLTDEQYQAVRAEPTNPSKMRKLFSFTPAWNWTCKDLLLQALRDSQSYLVEDLER [E70D],-0.152 ± 0.12
6,FIDQHRAALIARVTNVEWLLDALYGKVLTDEQYQAVRAEPTNPSKMRKLFSFTPAWNWTCKDLLLQALRESQSYLWEDLER [V76W],-0.611 ± 0.2
7,FIDQHRAALIARVTNVEWLLDALYGKVLTDEQYQAVRAEPTEPSKMRKLFSFTPAWNWTCKDLLLQALRESQSYLVEDLER [N42E],-0.337 ± 0.085
8,FIDQHRAALIARVTNVEWLLDALYGKVLTDEQYQAVRAEPTNPSKMRKLFSFTPAHNWTCKDLLLQALRESQSYLVEDLER [W56H],-0.371 ± 0.26
9,FIDQHRAALIAKVTNVEWLLDALYGKVLTDEQYQAVRAEPTNPSKMRKLFSFTPAWNWTCKDLLLQALRESQSYLVEDLER [R12K],-0.228 ± 0.095
10,FIDQHRAALIARVTNVEWLLDALYGKVLTREQYQAVRAEPTNPSKMRKLFSFTPAWNWTCKDLLLQALRESQSYLVEDLER [D30R],-0.254 ± 0.053
11,FIDQHRAALIARVTNVEWLLDALYGKVQTDEQYQAVRAEPTNPSKMRKLFSFTPAWNWTCKDLLLQALRESQSYLVEDLER [L28Q],-0.931 ± 0.23
12,FIDQHRAALIARVTNVEWLLDALYGKVNTDEQYQAVRAEPTNPSKMRKLFSFTPAWNWTCKDLLLQALRESQSYLVEDLER [L28N],-0.805 ± 0.31
13,FIDQHRAALIARVTNVEWLLDALMGKVLTDEQYQAVRAEPTNPSKMRKLFSFTPAWNWTCKDLLLQALRESQSYLVEDLER [Y24M],-0.501 ± 0.065
14,FIDQHRAKLIARVTNVEWLLDALYGKVLTDEQYQAVRAEPTNPSKMRKLFSFTPAWNWTCKDLLLQALRESQSYLVEDLER [A8K],-0.521 ± 0.13
15,FIDQQRAALIARVTNVEWLLDALYGKVLTDEQYQAVRAEPTNPSKMRKLFSFTPAWNWTCKDLLLQALRESQSYLVEDLER [H5Q],-0.341 ± 0.11
16,FIDQLRAALIARVTNVEWLLDALYGKVLTDEQYQAVRAEPTNPSKMRKLFSFTPAWNWTCKDLLLQALRESQSYLVEDLER [H5L],-0.071 ± 0.042
17,FIDRHRAALIARVTNVEWLLDALYGKVLTDEQYQAVRAEPTNPSKMRKLFSFTPAWNWTCKDLLLQALRESQSYLVEDLER [Q4R],-0.19 ± 0.043
